Biological target: T1, RIα-D/D-GFP (Bos taurus, UniProt P00514)
T1 construct: The dimerization/docking (D/D) domain of RIα and full-length RIIα were each fused with green fluorescent protein (GFP); expressed in transfected cells; host or cells: 10T(1/2) cells
Assay: Co-localization of PKA regulatory domain with mitochondria-targeted AKB domain in 10T(1/2) cells (Example 3)
Type: cell-based
Conditions: C-terminal 156 residues of D-AKAP2 fused to D-AKAP1 mitochondrial anchoring domain
Source text: The 30 amino acid mitochondrial anchoring domain of D-AKAP1 (Chen et al. (1997) J. Biol. Chem., 272:15247-57; and Huang et al. (1997) J. Biol. Chem., 272:8057-8064) was fused to the C-terminal 156 residues of mouse (amino acids 217-372 of SEQ ID NO:55) and human (amino acids 507-662 of SEQ ID NO:64) D-AKAP2, respectively, followed by a Flag-tag and subcloned into pcDNA4 (Invitrogen, Carlsbad, Calif.). The dimerization/docking (D/D) domain of RIα and full-length RIIα were each fused with green fluorescent protein (GFP) and cloned into pEGFPN1 (Clontech, Palo Alto, Calif.). […] The AKB domain was detected by immuno-staining with monoclonal antibodies against the Flag-tag (Kodak, Rochester, N.Y.) followed by rhodamine-conjugated secondary antibody (Jackson Lab, Bar Harbor, Me.). […]
In this assay, the AKB domain within the C-terminal 156 residues of D-AKAP2 from mouse (Val) and human (Ile) was fused to the mitochondrial anchoring domain from D-AKAP1 and tethered to the outer mitochondrial membrane (Chen et al. (1997) J. Biol. Chem., 272:15247-15257; and Huang et al. (1997) J. Biol. Chem., 272:8057-8064). The binding of the AKB domain with the PKA regulatory domains was detected as the co-transfected PKA regulatory domains co-localized to the mitochondria. […]

T1 sequence (P00514 2-135 limits assumed): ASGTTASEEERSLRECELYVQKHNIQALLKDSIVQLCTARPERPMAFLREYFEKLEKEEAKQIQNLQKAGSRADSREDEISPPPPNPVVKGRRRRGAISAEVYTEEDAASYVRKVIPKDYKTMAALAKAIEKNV

B1: Ile (646) variant: D-AKAP2 AKB domain with Ile at amino acid 646 (SEQ ID NO:64), tested as GST fusion or mitochondria-targeted fusion construct (protein, listed as Homo sapiens)
chain: MRGAGPSPRQSPRTLRPDPGPAMSFFRRKVKGKEQEKTSDVKSIKASISVHSPQKSTKNHALLEAAGPSHVAINAISANMDSFSSSRTATLKKQPSHMEAAHFGDLGRSCLDYQTQETKSSLSKTLEQVLHDTIVLPYFIQFMELRRMEHLVKFWLEAESFHSTTWSRIRAHSLNTMKQSSLAEPVSPSKKHETTASFLTDSLDKRLEDSGSAQLFMTHSEGIDLNNRTNSTQNHLLLSQECDSAHSLRLEMARAGTHQVSMETQESSSTLTVASRNSPASPLKELSGKLMKSIEQDAVNTFTKYISPDAAKPIPITEAMRNDIIARICGEDGQVDPNCFVLAQSIVFSAMEQEHFSEFLRSHHFCKYQIEVLTSGTVYLADILFCESALFYFSEYMEKEDAVNILQFWLAADNFQSQLAAKKGQYDGQEAQNDAMILYDKYFSLQATHPLGFDDVVRLEIESNICREGGPLPNCFTTPLRQAWTTMEKVFLPGFLSSNLYYKYLNDLIHSVRGDEFLGGNVSPTAPGSVGPPDESHPGSSDSSASQSSVKKASIKILKNFDEAIIVDAASLDPESLYQRTYAGKMTFGRVSDLGQFIRESEPEPDVRKSKGSMFSQAMKKWVQGNTDEAQEELAWKIAKMIVSDIMQQAQYDQPLEKSTKL
modifications: GST or mitochondria-targeting fusion
With B1 the “targeting of RIα to the mitochondria” value was “decrease in mitochondrial localization” and the “targeting of RIα to the mitochondria” value (listed as lie variant) was “unable to target RIα”.
